From patent US10253323B2, “Chloroplast transit peptides” (priority 2015, dated 2019) come the findings set out here.

“Also recorded” adds a separate entry of the source.

Assay [1] concerns infiltrated tobacco cells. Kind of assay: Western blot of infiltrated tobacco plants. Format: cell-based, Nicotiana tabacum. The settings on record: infiltrated tobacco leaf tissue. On the procedure: Samples of the infiltrated tobacco plants were assayed via Western blotting. Leaf punches were collected and subjected to bead-milling. About 100-200 mg of leaf material was mixed with 2 BBs (Daisy; Rogers, Ark.) and […] of PBST for 3 minutes in a Kleco™ bead mill. The samples were then spun down in a centrifuge at 14,000× g at 4° C. The supernatant was removed and either analyzed directly via Western blot or immunoprecipitated. The immunoprecipitations were performed using the Pierce Direct IP Kit™ (Thermo Scientific; Rockford, Ill.) following the manufacturer's protocol. Approximately, 50 μg of anti-YFP or anti-GFP was bound to the resin. The samples were incubated with the resin overnight at 4° C. Next, the samples were washed and eluted the following morning and prepped for analysis by combining equal volumes of 2×8M Urea sample buffer and then boiling the samples for 5 minutes. The boiled samples were run on a 4-12% SDS-Bis Tris gel in MOPS buffer for 40 minutes. The gel was then blotted using the Invitrogen iBlot™ (Life Technologies; Carlsbad, Calif.) following the manufacturer's protocol. The blotted membrane was blocked for 10 minutes using 5% non-fat dry milk in PBS-Tween® solution. The membrane was probed with the primary antibody (monoclonal anti-GFP or anti-YFP in rabbit) used at a 1:1000 dilution in the 5% non-fat dry milk in PBS-Tween® solution for 1 hour. Next, the membrane was rinsed three times for five minutes with PBS-Tween® to remove all unbound primary antibody. The membrane was probed with a secondary monoclonal anti-rabbit in goat antibody (Life Technologies) used at a 1:1000 dilution, for 60 minutes. The membrane was washed as previously described and developed by adding Themo BCIP/NBT™ substrate. The colormetric substrate was allowed to develop for 5-10 minutes and then the blots were rinsed with water before being dried.

The test system of assay [2] is dgt-28 transformed T1 Arabidopsis. Put plainly: Glyphosate tolerance of dgt-28 transformed T1 Arabidopsis. It counts as in vivo, Arabidopsis thaliana. The settings on record: dgt-28 linked with the chloroplast transit peptide, T1 Arabidopsis. On the procedure:
The Arabidopsis T1 transformants (from transformation with pDAB114286 or pDAB114287) were first selected from the background of untransformed seed using a glufosinate selection scheme. Three flats or 50,000 seed were analyzed for each T1 construct. The selected T1 plants were molecularly characterized (as described above) and events with a range of copy number were sprayed with various rates of commercial glyphosate.
Transgenic T1 Arabidopsis plants containing the dgt-28 transgene were sprayed with differing rates of glyphosate. Elevated rates were applied in this study to determine the relative levels of resistance (420, 840, 1,680 or 3,360 g ae/ha). The typical 1× field usage rate of glyphosate is 1120 g ae/ha. The response of these plants is presented in terms of % visual injury 2 weeks after treatment (WAT). The T1 Arabidopsis plants that were used in this study were of variable copy number for the dgt-28 transgene. The low copy dgt-28 T1 Arabidopsis plants were self-pollinated and used to produce T2 plants.
An arithmetic mean and standard deviation is presented for each construct used for Arabidopsis transformation. The range in individual response is also indicated in the last column for each rate and transformation. Wildtype, non-transformed Arabidopsis thaliana c.v. Columbia served as a glyphosate sensitive control.

Assay [3] relates to chloroplasts of the tobacco leaf tissues. Kind of assay: Tobacco transient assay, confocal microscopy of TraP-YFP/GFP. Format: cell-based, Nicotiana tabacum. Conditions: TraP-YFP or TraP-GFP fusion, Agrobacterium-infiltrated tobacco leaf tissue. An excerpt:
The above described chimeric chloroplast transit peptide sequences were initially tested via a transient in planta assay. Polynucleotide sequences which encode the TraP10 (SEQ ID NO:9), TraP11 (SEQ ID NO:10), TraP17 (SEQ ID NO:11), TraP18 (SEQ ID NO:12), TraP19 (SEQ ID NO:13), TraP26 (SEQ ID NO:14), TraP27 (SEQ ID NO:15), and TraP28 (SEQ ID NO:16), chimeric chloroplast transit peptide sequences were synthesized. A linker sequence (SEQ ID NO:17) was incorporated between the TraP sequence and the yfp coding sequence of TraP10 and TraP11. The resulting constructs contained two plant transcription units (PTU). The first PTU was comprised of the Arabidopsis thaliana Ubiquitin 10 promoter (AtUbi10 promoter; Callis, et al., (1990) J. Biol. Chem., 265: 12486-12493), TraP-yellow fluorescent protein fusion gene (TraP-YFP; US Patent App. 2007/0298412) or the TraP-green fluorescent protein fusion gene (TraP-GFP; Sheen et al., (1995) Plant J., 8(5): 777-84), and Agrobacterium tumefaciens ORF 23 3′ untranslated region (AtuORF23 3′UTR; U.S. Pat. No. 5,428,147). The second PTU was comprised of the Cassava Vein Mosaic Virus promoter (CsVMV promoter; Verdaguer et al., (1996) Plant Molecular Biology, 31: 1129-1139), phosphinothricin acetyl transferase (PAT; Wohlleben et al., (1988) Gene, 70: 25-37) or DSM-II (International Patent App. 2008070845), and Agrobacterium tumefaciens ORF 1 3′ untranslated region (AtuORF1 3′UTR; Huang et al., (1990) J. Bacteriol., 172: 1814-1822). Construct pDAB101979 contains the TraP10 chimeric chloroplast transit peptide (FIG. 3). Construct pDAB101980 contains the TraP11 chimeric chloroplast transit peptide (FIG. 4). Construct pDAB107634 contains the TraP17 chimeric chloroplast transit peptide (FIG. 5). Construct pDAB107635 contains the TraP18 chimeric chloroplast transit peptide (FIG. 6). Construct pDAB107636 contains the TraP19 chimeric chloroplast transit peptide (FIG. 7). Construct pDAB109847 contains the TraP26 chimeric chloroplast transit peptide (FIG. 8). Construct pDAB109848 contains the TraP27 chimeric chloroplast transit peptide (FIG. 9). Construct pDAB109849 contains the TraP28 chimeric chloroplast transit peptide (FIG. 10). […] The constructs were confirmed via restriction enzyme digestion and sequencing. Finally, the constructs were transformed into Agrobacterium tumefaciens and stored as glycerol stocks.
From an Agrobacterium glycerol stock, a loop full of frozen culture was inoculated into 2 ml of Yeast-extract Peptone Dextrose (100 μg/ml spectinomycin) in a 14 ml sterile tube. The inoculated media was incubated at 28° C. overnight with shaking at 200 rpm. The following day about 100 μl of the culture was used to inoculate 25 ml of YPD (100 μg/ml spectinomycin) in a 125 ml sterile tri-baffled flask, and incubated overnight at 28° C. overnight with shaking at 200 rpm. The following day the cultures were diluted to an OD600 of 0.5 in sterile ddH2O (pH 8.0). The diluted Agrobacterium strain was mixed with a second Agrobacterium strain containing the P19 helper protein at a ratio of 1:1. The culture were used for tobacco leaf infiltration via the Voinnet method. Voinnet O, Rivas S, Mestre P, and Baulcombe D, (2003) An enhanced transient expression system in plants based on suppression of gene silencing by the p19 protein of tomato bushy stunt virus. The Plant Journal, 33: 949-956. Infiltrated tobacco plants were placed in a Conviron™ set at 16 hr of light at 24° C. for at least three days until being assayed.
Agrobacterium-infiltrated tobacco leaves were severed from the plant, and placed into a petri-dish with water to prevent dehydration. The infiltrated tobacco leaves were observed under blue light excitation with long-pass filter glasses held in place using a Dark Reader Hand Lamp™ (Clare Chemical Research Co.; Dolores, Colo.) to identify undamaged areas of the leaf that were successfully expressing the YFP or GFP reporter proteins. […]

The test system of assay [4] is chloroplasts of the maize protoplasts. Put plainly: Maize protoplast transient assay, microscopy of TraP-GFP. It counts as cell-based, Zea mays c.v. B104. Conditions: TraP-GFP fusion, transfected maize protoplasts, microscopy after 12 hours. On the procedure: Seed of Zea mays c.v. B104 were surface sterilized by shaking vigorously in 50% Clorox™ (3% sodium hypochlorite), containing 2-3 drops of Tween® 20, for about 20 minutes. The seeds were rinsed thoroughly with sterile distilled water. The sterile seed were plated onto ½ MS medium in Phytatrays or similar type boxes, and allowed to grow in the dark (28° C.) for 12 to 20 days. A maize protoplast transient assay was used to obtain and transfect maize protoplasts from leaves of Zea mays c.v. B104. This maize protoplast assay is a modification of the system described by Yoo, S.-D., Cho, Y.-H., and Sheen, J., (2007), Arabidopsis Mesophyll Protoplasts: A Versitile Cell System for Transient Gene Expression Analysis, Nature Protocols, 2: 1565-1572. The solutions were prepared as described by Yoo et. al., (2007), with the exception that the mannitol concentration used for the following experiments was change to 0.6 M.
Transfection of 100 to 500 μl of protoplasts (1-5×10^5 cells) was completed by adding the protoplasts to a 2 ml microfuge tube containing about 40 μg of plasmid DNA, at room temperature. The volume of DNA was preferably kept to about 10% of the protoplast volume. The protoplasts and DNA were occasionally mixed during a 5 minute incubation period. An equal volume of PEG solution was slowly added to the protoplasts and DNA, 2 drops at a time with mixing in between the addition of the drops of PEG solution. The tubes were allowed to incubate for about 10 minutes with occasional gentle mixing. Next, 1 ml of W5+ solution was added and mixed by inverting the tube several times. The tube(s) were centrifuged for 5 minutes at 75× g at a temperature of 4° C. Finally, the supernatant was removed and the pellet was resuspended in 1 ml of WI solution and the protoplasts were placed into a small petri plate (35×10 mm) or into 6-well multiwell plates and incubated overnight in the dark at room temperature. Fluorescence of GFP was viewed by microscopy after 12 hours of incubation. The microscopy conditions similar to those previously described were used for the imaging.

B1: TraP27: synthetic chloroplast transit peptide, SEQ ID NO:7; tested fused to GFP (pDAB109848) (protein)
chain: MATFTRVCHTARKSFVSLSNSQANSPVSVRFLSLPMPAARPAVKSGVRLWGCRLSFKVSAS
modifications: TraP27
For the molecule B1, the “TraP processed and cleaved from the YFP or GFP protein” value (from here on “TraP processed and cleaved”) in assay [1] is “processed and cleaved from the YFP or GFP protein”. The protection to glyphosate entry in assay [2] is “provide protection to glyphosate”. Moreover, the figures for the “translocation of YFP or GFP fluorescent protein into chloroplasts” value in assay [3] and in assay [3] (listed as TraP27-GFP) were “accumulated within the chloroplasts; also recorded: successfully targeted GFP to tobacco chloroplasts” and “translocated into the chloroplasts”, respectively.

B2: TraP18: chimeric chloroplast transit peptide, SEQ ID NO:4; N-terminus Oryza sativa, C-terminus Amaranthus; tested fused to GFP (pDAB107635) (protein)
chain: MAATMASNAAAAAAVSLDQAVAASAAFSSKTLNFGSNLRISPKFMSLTNKRVGGQSSIVPKIQASVA
modifications: TraP18
Turning to B2, the “TraP processed and cleaved” value in assay [1] was “processed and cleaved from the YFP or GFP protein”. The “translocation of YFP or GFP fluorescent protein into chloroplasts” value in assay [3] was “accumulated within the chloroplasts; also recorded: successfully targeted GFP to maize and tobacco chloroplasts”; in assay [3] (listed as TraP18-GFP), “translocated into the chloroplasts”. For the same molecule, the “translocation of GFP fluorescent protein into chloroplasts” value in assay [4] was “accumulated within the chloroplasts; also recorded: successfully targeted GFP to maize and tobacco chloroplasts”; in assay [4] (listed as TraP18-GFP) it was “translocated into the chloroplasts”.

B3: TraP19: chimeric chloroplast transit peptide, SEQ ID NO:5; N-terminus Amaranthus, C-terminus Dunaliella salina; tested fused to GFP (pDAB107636) (protein)
chain: MAQATTINNGVHTGQLHHTLPKTQLPKSSKVNDVVPHVYSAPLSVARRSCSKSSIRSTRRLQTTVCS
modifications: TraP19
As for B3, the “TraP processed and cleaved” value in assay [1] was “processed and cleaved from the YFP or GFP protein”. For the same molecule, the “translocation of YFP or GFP fluorescent protein into chloroplasts” value is “accumulated within the chloroplasts; also recorded: successfully targeted GFP to maize and tobacco chloroplasts” in assay [3]; “translocated into the chloroplasts” in assay [3] (listed as TraP19-GFP). Also, the “translocation of GFP fluorescent protein into chloroplasts” value in assay [4] is “successfully targeted GFP to maize and tobacco chloroplasts”; in assay [4] (listed as TraP19-GFP) it was “translocated into the chloroplasts”; in assay [4] (listed as Trap19), “accumulated within the chloroplasts”.
